According to patent US20240115603A1 (Zymeworks, published 2024):

Assays:
[1] = biological target: T1, WT G-CSF, purified, tag cleaved (human, UniProt P09919 31-206); assay: SPR (Biacore T200, 25 C), kinetic fit, 1:1 Langmuir; range over independent experiments; lower end of the range over the WT:WT runs
T1 construct: also called G-CSFWT
T1 sequence: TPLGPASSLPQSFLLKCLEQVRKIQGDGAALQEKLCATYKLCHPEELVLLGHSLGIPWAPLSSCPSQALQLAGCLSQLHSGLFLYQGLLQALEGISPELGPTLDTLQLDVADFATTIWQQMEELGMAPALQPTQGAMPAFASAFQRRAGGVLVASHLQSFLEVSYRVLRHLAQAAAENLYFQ
Protocol: The SPR binding assays were carried out on a Biacore T200 instrument (GE Healthcare, Mississauga, ON, Canada) with PBS-T (PBS+0.05% (v/v) Tween 20) running buffer at a temperature of 25° C. […] Designs were assessed in three different immobilization orientations.
Double-referenced sensorgrams from duplicate or triplicate repeat injections were analyzed using Biacore™ T200 Evaluation Software v3.0 and fit to the 1:1 Langmuir binding model.
Kinetic-derived affinity constants (KD) where obtained by fitting the association and dissociation phases of the curves. […] For the cases in which the kinetic parameters could not be fit an attempt was made to derive a steady state affinity constant.

[2] = biological target: T2, G-CSFR(CRH)E site II design 15 with N-terminal His tag (human); assay: co-expression in Tni insect cells, pulldown via Twin Strep tag on G-CSF, SDS-PAGE
T2 construct: also called design #15 G-CSFR(CRH)E
T2 chain: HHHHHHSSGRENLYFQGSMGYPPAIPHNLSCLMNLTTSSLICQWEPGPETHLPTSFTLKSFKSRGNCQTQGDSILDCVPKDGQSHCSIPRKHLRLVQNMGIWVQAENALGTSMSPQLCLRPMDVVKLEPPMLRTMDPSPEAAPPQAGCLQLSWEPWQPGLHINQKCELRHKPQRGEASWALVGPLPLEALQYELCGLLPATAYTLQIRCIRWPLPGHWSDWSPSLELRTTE

[3] = biological target: T3, G-CSFR(CRH)E site II design 8 with N-terminal His tag (human); assay: as above
T3 construct: also called design #8 G-CSFR(CRH)E
T3 chain: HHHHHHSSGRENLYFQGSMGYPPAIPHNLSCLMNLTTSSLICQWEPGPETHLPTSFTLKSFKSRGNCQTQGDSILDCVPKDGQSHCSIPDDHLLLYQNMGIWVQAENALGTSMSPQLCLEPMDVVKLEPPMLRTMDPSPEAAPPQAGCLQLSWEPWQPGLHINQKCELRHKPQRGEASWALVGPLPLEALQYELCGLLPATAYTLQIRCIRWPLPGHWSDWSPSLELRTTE

[4] = biological target: T4, G-CSFR(Ig-CRH)E combination design 402 with N-terminal His tag (human, UniProt Q99062 25-331); assay: as above
T4 construct: also called design 402 engineered receptor
T4 chain: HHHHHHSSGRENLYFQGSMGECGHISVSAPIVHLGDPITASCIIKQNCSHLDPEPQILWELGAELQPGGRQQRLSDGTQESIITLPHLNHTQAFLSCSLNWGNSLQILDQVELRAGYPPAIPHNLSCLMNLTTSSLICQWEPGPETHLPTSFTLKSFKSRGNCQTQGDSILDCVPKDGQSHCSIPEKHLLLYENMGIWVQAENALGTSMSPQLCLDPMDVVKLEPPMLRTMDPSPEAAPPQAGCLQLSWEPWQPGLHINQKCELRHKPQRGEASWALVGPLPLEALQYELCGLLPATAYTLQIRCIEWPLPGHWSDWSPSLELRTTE

[5] = biological target: T5, G-CSFR(CRH)E site II design 35 with N-terminal His tag (human); assay: as above
T5 construct: also called design #35 G-CSFR(CRH)E
T5 chain: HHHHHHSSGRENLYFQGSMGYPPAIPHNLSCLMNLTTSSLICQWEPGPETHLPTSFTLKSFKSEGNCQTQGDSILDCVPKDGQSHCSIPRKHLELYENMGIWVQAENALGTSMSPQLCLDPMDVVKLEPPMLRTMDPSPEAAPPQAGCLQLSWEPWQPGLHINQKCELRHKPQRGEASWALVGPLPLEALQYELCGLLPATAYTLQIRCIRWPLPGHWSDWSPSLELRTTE

[6] = biological target: T6, G-CSFR(CRH)E site II design 9 with N-terminal His tag (human); assay: as above
T6 construct: also called design #9 G-CSFR(CRH)E
T6 chain: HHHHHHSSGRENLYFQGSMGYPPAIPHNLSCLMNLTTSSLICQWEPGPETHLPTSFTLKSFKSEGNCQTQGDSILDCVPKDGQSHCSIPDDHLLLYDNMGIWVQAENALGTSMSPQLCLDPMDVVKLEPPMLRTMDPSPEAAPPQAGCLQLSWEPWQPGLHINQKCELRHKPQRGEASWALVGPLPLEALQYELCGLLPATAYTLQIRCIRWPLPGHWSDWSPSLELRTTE

[7] = biological target: T7, G-CSFR(CRH)E site II design 34 with N-terminal His tag (human, UniProt Q99062 120-331); assay: as above
T7 construct: also called design #34 G-CSFR(CRH)E
T7 chain: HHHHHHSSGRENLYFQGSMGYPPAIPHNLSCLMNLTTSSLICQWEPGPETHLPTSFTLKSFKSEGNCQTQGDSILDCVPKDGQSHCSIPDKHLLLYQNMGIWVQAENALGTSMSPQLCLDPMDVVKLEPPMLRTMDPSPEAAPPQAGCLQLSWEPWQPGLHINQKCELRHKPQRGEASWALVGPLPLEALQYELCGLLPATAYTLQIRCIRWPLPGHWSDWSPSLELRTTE

[8] = biological target: T8, G-CSFR(CRH)E site II design 30 with N-terminal His tag (human, UniProt Q99062 120-331); assay: as above
T8 construct: also called design #30 G-CSFR(CRH)E
T8 chain: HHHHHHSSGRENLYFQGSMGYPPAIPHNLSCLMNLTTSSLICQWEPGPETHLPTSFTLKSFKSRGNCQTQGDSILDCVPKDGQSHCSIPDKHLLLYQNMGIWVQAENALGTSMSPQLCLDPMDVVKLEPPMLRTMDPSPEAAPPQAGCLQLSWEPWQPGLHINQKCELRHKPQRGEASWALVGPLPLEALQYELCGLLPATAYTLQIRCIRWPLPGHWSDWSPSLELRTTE

[9] = biological target: T9, G-CSFR(Ig-CRH)E combination design 401 with N-terminal His tag (human, UniProt Q99062 25-331); assay: as above
T9 construct: also called design 401 engineered receptor
T9 chain: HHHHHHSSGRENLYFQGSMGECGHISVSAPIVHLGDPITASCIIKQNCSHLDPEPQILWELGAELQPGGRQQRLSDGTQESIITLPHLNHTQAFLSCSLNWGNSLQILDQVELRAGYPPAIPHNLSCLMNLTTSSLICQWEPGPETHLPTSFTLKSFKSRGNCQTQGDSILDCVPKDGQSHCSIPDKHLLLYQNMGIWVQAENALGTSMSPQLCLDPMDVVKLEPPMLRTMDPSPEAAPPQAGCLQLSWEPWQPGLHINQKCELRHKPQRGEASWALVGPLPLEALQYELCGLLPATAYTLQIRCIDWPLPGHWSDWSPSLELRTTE

B1: WT G-CSFR(Ig-CRH), purified, tag cleaved (receptor)
chain: GSMGCGHISVSAPIVHLGDPITASCIIKQNCSHLDPEPQILWRLGAELQPGGRQQRLSDGTQESIITLPHLNHTQAFLSCSLNWGNSLQILDQVELRAGYPPAIPHNLSCLMNLTTSSLICQWEPGPETHLPTSFTLKSFKSRGNCQTQGDSILDCVPKDGQSHCSIPRKHLLLYQNMGIWVQAENALGTSMSPQLCLDPMDVVKLEPPMLRTMDPSPEAAPPQAGCLQLSWEPWQPGLHINQKCELRHKPQRGEASWALVGPLPLEALQYELCGLLPATAYTLQIRCIRWPLPGHWSDWSPSLELRTTE
notes: also called G-CSFRWT; wild type G-CSFR ECD
1.8 to 2.5 nM: Kd [1]

B2: WT G-CSF with C-terminal Twin Strep tag (ligand)
chain: not shown
notes: also called G-CSFWT
no binding: binding result [2] | binding result [3] | binding result [4] | binding result [5] | binding result [6] | binding result [7] | binding result [8] | binding result [9]
